B1: 2M8U (parent)
chain: TKAQVIEAFKVFDRDGNGYVTVDYLRKVLNELGDMMPADEIEEMIYEADPQNSGYVQYETFVGMLFL
B2: EHEE_rd2_0196 (parent)
chain: TETRTFDSEEEAKKAQKEAEKQGRTVTITRRDDRWEVRFD

Variants of: B1
Test: folding stability dG (cDNA display proteolysis); higher = more stable
Conditions: PBS, room temperature

Folding stability dG [kcal/mol] of substitutions, site by site:
T1: M 3.21; R 3.33; E 2.94; N 3.18; H 3.16; I 3.61; K 3.48; Y 2.83; Q 3.13; C 3.76; L 3.3; G 2.88; S 3.34; D 2.96; F 2.91; V 3.32; W 3.1; A 3.13; P 2.6
Q4: D 3.28; C 3.56; A 3.53
K2: I 3.46; F 2.94; C 3.6; H 3.11; L 3.3; W 2.67; T 2.79; E 3.07; G 2.52; P 3.2; Y 3.24; M 3.65; N 2.56; D 2.24; V 3.4; A 3.47; S 2.98; R 3.02
A3: M 3.24; P 2.67; Q 3.56; I 3.27; T 3.14; W 2.9; V 3.2; E 3.69; F 3; C 3.48; R 3.23; N 3.25; D 3.28; G 2.93; Y 2.81; L 3.21; K 3.31; S 3.46; H 3.22

Variants of: B2
Test: as above
Conditions: PBS, room temperature

Folding stability dG [kcal/mol], by site and new letter:
R38: M 2.74; K 2.96; D 2.18; E 2.68; L 2.69; H 3.04; T 3.15; V 3.02; A 2.8; Y 2.24; P 0.679; N 2.73; F 2.33; W 2.17; S 3; I 3.05; G 2.1; Q 2.85
R34: S 2.76; N 2.41; A 2.81; F 3.14; D 2.03; K 3.51; W 2.79; E 2.41; Q 2.96; L 3.13; H 3.13; P 0.669; G 3.16; Y 3.18; V 3.14; M 3.14; T 2.7; I 3.14
D40: H 2.98; G 2.95; M 3.01; L 3.05; S 3.13; W 2.89; T 3.15; Q 2.92; E 3.28; N 2.88; Y 2.8; A 2.97; P 2.3; R 2.42; F 2.85; K 2.3; V 3.21; I 3.13
T25: Y 2.33
D33: R 1.83; Y 1.48; V 1.4; N 3.08; E 2.7; K 2.17; H 2.5; F 1.55; L 1.71; S 2.36; A 1.96; Q 2.46; P 1.21; T 2.09; M 1.95; C 2.47; G 3.39; I 1.37; W 1.34
W35: Y 2.08; G 0.36; N 0.396; D 0.578; P 0.441; S 0.473; A 0.417; V 0.758; I 1.2; K 0.058; F 2.18; Q 0.348; H 0.529; R 0.21; M 0.562; L 0.862; E 0.481; T 0.4
V37: D 0.415; S 0.483; I 2.65; W -0.006; Q 0.384; M 2.17; E 0.37; A 1.89; T 1.31; Y 0.443; R -0.375; C 1.8; F 1.02; P 0.552; N 0.539; H 0.212; G 1.09; K 0.375; L 2.83
V26: N 0.69; P 1.87; T 2.76; A 3.4; G 2.61; K 0.184; R 0.117; E 0.318; S 3; F 0.841; D 0.12; Y 0.849; M 1.18; L 1.23; W 0.253; Q 0.065; I 2.08; H 0.258; C 3.6
D32: Q 2.97; F 2.55; Y 2.19; S 2.45; K 3.01; L 2.63; A 2.92; M 2.61; W 1.84; G 3.98; R 2.48; V 2.29; E 3.07; P 1.75; N 3.29; T 2.06; H 2.83; I 2.11
T29: L 2.53; M 2.48; A 2.36; K 2.44; I 3.19; D 1.71; Q 2.59; W 1.8; H 2.75; F 2.3; S 2.73; P 0.016; V 3.16; G 2.02; R 2.76; E 2.48; Y 2.21; N 2.45
R31: K 3.13; D 1.79; P 0.846; I 3.27; L 2.9; A 2.38; G 1.68; T 2.56; E 2; W 2.18; Y 2.57; Q 2.55; V 3.43; S 2.29; M 2.78; F 2.75; N 2.57; H 2.69
T27: P 0.682; L 1.89; C 3.03; F 1.94; G 1.36; Y 1.95; K 2.45; W 1.8; R 2.56; N 2.11; V 2.88; A 2.16; I 2.94; Q 2.52; H 2.59; E 2.03; S 2.76; D 1.37; M 2
I28: Q 0.41; E 0.07; H -0.123; D -0.146; G 0.232; V 2.83; Y 0.332; K 0.714; T 1.18; F 0.342; L 2.06; M 1.77; C 2.46; R 1.31; N 0.423; P 0.277; A 0.842; S 0.645
E36: S 1.19; Q 1.95; D 2.06; N 1.15; Y 2.57; L 2.46; W 1.94; G 0.645; T 1.74; F 2.5; M 2.06; V 2.89; K 0.851; I 2.99; A 1.32; R 1.08; H 2.08
R30: Q 2.81; Y 2.83; W 2.68; G 1.71; H 2.59; K 3.11; P 2.06; V 2.5; S 1.94; N 2.25; T 1.91; F 3.33; L 2.83; A 2.3; M 2.8; D 0.983; I 2.46; E 2.02
F39: V 2.93; S 2.46; R 1.35; P 2.06; Y 3.15; M 2.96; N 1.81; D 2.51; W 2.94; K 1.29; Q 2.02; E 2.52; I 3.35; H 1.93; G 1.87; C 2.14; T 2.48; A 2.34; L 2.74
